Laboratory results reported in publication PMC12115362.

Tests used:
Test in all cases: SEC; Agilent-1100, TSK G3000SWXL column; 0.2 M NaH2PO4, 0.1 M arginine, 1% IPA, pH 6.5; peaks integrated for approximate trimer percentage; N = 3
[1] = biological target: hMPV F pre-F benchmark D185P (subtype A2, CAN97-83 ectodomain with foldon) (human metapneumovirus, subtype A2, strain CAN97-83 | T4)
[2] = biological target: hMPV F pre-F design K362F_G366F (subtype A2, CAN97-83 ectodomain with foldon) (human metapneumovirus, subtype A2, strain CAN97-83 | T4)
[3] = biological target: hMPV F pre-F design N46V_T160F (subtype A2, CAN97-83 ectodomain with foldon) (human metapneumovirus, subtype A2, strain CAN97-83 | T4)

## hMPV F pre-F benchmark D185P (subtype A2, CAN97-83 ectodomain with foldon) (domain or fragment)
[1]
  Trimer (%): 97.1%
  stoichiometry N: 3

## hMPV F pre-F design K362F_G366F (subtype A2, CAN97-83 ectodomain with foldon) (domain or fragment)
[2]
  Trimer (%): 76.9%
  stoichiometry N: 3

## hMPV F pre-F design N46V_T160F (subtype A2, CAN97-83 ectodomain with foldon) (domain or fragment)
[3]
  Trimer (%): 94.7%
  stoichiometry N: 3
